{"source": "paper PMC4353692", "about": "“Structure of the Vacuolar H^+-ATPase Rotary Motor Reveals New Mechanistic Insights” (Structure(London, England:1993), 2015)", "binders": {"B1": {"name": "Manduca sexta V-ATPase subunit E (natural protein, Manduca sexta (endogenous in midgut), UniProt P31402 1-226, looked up)", "chain": "MALSDADVQKQIKHMMAFIEQEANEKAEEIDAKAEEEFNIEKGRLVQQQRLKIMEYYEKKEKQVELQKKIQSSNMLNQARLKVLKVREDHVRNVLDEARKRLAEVPKDIKLYSDLLVTLIVQALFQLVEPTVTLRVRQADKALVESLLGRAQQDYKAKIKKDVVLKIDNENFLPPDTCGGIELIAAKGRIKISNTLESRLELIAQQLLPEIRNALFGRNPNRKFTD", "notes": "V-type proton ATPase subunit E, Manduca sexta; Three copies in the holoenzyme (stator filaments S1, S2, S3); also called part of the EG stator filaments S1-S3; source: purified from M. sexta midgut, as part of the V-ATPase holoenzyme"}}, "assay_in_all_cases": "cryo-EM structure; M. sexta V-ATPase holoenzyme purified from tissue, in C12E10; 9.4 Å reconstruction (gold standard FSC 0.143); homology models of the subunits flexibly fitted by MDFF; side chains not resolved", "details_in_all_cases": "both partners purified", "key": {"[1]": {"target": "T1, Manduca sexta V-ATPase subunit B (Manduca sexta (endogenous in midgut), UniProt P31401 1-494)", "T1 construct": "V-type proton ATPase subunit B, Manduca sexta; Three copies in the holoenzyme, (AB)3; source: purified from M. sexta midgut, as part of the V-ATPase holoenzyme", "T1 sequence (P31401 whole entry)": "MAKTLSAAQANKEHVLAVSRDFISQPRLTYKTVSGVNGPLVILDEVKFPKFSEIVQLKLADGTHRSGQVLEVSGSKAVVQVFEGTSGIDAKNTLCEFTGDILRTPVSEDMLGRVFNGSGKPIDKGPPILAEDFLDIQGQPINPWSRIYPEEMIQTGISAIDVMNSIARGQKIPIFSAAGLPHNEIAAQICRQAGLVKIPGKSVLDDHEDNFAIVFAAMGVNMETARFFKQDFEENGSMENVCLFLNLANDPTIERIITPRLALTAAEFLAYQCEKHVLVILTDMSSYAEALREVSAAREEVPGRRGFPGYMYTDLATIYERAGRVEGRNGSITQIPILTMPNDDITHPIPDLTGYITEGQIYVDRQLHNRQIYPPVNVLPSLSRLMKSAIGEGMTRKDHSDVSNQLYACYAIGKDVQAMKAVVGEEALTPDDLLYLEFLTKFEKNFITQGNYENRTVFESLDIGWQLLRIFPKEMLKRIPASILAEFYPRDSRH"}, "[2]": {"target": "T2, Manduca sexta V-ATPase subunit A (Manduca sexta (endogenous in midgut), UniProt P31400 1-617)", "T2 construct": "V-type proton ATPase catalytic subunit A, Manduca sexta; Three copies in the holoenzyme, (AB)3; source: purified from M. sexta midgut, as part of the V-ATPase holoenzyme", "T2 sequence (P31400 whole entry)": "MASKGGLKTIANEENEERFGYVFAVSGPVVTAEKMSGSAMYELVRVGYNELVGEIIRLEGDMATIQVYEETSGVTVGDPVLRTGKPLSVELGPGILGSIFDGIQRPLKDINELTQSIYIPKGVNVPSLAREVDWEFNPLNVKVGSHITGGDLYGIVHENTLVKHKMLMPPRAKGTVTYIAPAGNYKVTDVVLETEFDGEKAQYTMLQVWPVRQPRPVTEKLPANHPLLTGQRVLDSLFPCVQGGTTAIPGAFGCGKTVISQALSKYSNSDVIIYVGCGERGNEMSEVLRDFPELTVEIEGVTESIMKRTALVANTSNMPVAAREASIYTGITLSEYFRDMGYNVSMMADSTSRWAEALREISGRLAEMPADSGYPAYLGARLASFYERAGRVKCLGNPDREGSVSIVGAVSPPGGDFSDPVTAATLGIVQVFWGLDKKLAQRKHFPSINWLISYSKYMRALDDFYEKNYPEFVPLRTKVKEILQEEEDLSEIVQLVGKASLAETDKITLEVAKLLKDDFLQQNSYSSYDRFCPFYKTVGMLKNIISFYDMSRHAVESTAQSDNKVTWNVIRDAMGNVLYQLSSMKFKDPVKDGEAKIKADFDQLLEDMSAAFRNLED"}, "[3]": {"target": "B1"}, "[4]": {"target": "T3, Manduca sexta V-ATPase subunit H (Manduca sexta (endogenous in midgut), UniProt Q9U5N0 1-475)", "T3 construct": "V-type proton ATPase subunit H, Manduca sexta; source: purified from M. sexta midgut, as part of the V-ATPase holoenzyme", "T3 sequence (looked up)": "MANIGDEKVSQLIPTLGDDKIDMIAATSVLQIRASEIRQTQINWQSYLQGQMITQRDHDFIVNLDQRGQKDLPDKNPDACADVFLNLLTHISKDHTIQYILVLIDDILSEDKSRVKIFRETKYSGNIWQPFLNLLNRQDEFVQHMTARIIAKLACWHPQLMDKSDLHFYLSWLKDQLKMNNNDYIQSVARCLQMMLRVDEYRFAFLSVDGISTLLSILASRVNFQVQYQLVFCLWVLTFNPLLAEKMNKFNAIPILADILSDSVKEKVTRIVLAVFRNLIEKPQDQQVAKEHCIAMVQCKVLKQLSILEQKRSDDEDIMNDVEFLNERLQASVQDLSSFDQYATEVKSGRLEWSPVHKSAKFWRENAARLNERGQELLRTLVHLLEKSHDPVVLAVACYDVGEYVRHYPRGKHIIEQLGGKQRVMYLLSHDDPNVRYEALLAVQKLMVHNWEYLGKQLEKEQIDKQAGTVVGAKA"}, "[5]": {"target": "T4, Manduca sexta V-ATPase subunit C (Manduca sexta (endogenous in midgut), UniProt Q9U5N1 1-385)", "T4 construct": "V-type proton ATPase subunit C, Manduca sexta; source: purified from M. sexta midgut, as part of the V-ATPase holoenzyme", "T4 sequence (Q9U5N1 whole entry)": "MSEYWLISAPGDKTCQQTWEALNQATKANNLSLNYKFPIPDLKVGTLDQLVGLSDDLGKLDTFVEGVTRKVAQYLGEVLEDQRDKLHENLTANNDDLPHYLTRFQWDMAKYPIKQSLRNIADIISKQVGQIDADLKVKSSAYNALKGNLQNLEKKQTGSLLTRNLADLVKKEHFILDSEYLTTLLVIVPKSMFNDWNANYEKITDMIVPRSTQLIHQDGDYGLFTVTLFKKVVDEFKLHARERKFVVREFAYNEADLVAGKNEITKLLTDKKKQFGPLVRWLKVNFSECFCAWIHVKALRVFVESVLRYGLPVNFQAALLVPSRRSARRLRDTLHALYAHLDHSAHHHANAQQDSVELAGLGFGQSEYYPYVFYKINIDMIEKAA"}}, "data": [{"binder": "Manduca sexta V-ATPase subunit D (natural protein, V-type proton ATPase subunit D, Manduca sexta; also called rotor axle; central axle; source: purified from M. sexta midgut, as part of the V-ATPase holoenzyme) not shown", "values": [{"measurement": "binding result", "setting": "[1]", "result": "binds"}, {"measurement": "binding result", "setting": "[2]", "result": "binds"}]}, {"binder": "Manduca sexta V-ATPase subunit G (natural protein, Manduca sexta (endogenous in midgut), UniProt Q25532 1-117, looked up, V-type proton ATPase subunit G, Manduca sexta; Three copies in the holoenzyme (stator filaments S1, S2, S3); also called part of the EG stator filaments S1-S3; source: purified from M. sexta midgut, as part of the V-ATPase holoenzyme) MASQTHGIQQLLAAEKRAAEKVSEARKRKAKRLKQAKEEAQDEVEKYRQERERQFKEFEAKHMGTREGVAAKIDAETRIKIDEMNKMVQTQKEAVIKDVLNLVYDIKPELHINYRVV", "values": [{"measurement": "binding result", "setting": "[3]", "result": "binds"}, {"measurement": "binding result", "setting": "[4]", "result": "binds"}, {"measurement": "binding result", "setting": "[5]", "result": "binds"}]}, {"binder": "B1", "values": [{"measurement": "binding result", "setting": "[4]", "result": "binds"}, {"measurement": "binding result", "setting": "[5]", "result": "binds"}]}]}
